T1: human neuromedin U receptor 1 (human, UniProt Q9HB89 24-426)
T1 sequence (looked up): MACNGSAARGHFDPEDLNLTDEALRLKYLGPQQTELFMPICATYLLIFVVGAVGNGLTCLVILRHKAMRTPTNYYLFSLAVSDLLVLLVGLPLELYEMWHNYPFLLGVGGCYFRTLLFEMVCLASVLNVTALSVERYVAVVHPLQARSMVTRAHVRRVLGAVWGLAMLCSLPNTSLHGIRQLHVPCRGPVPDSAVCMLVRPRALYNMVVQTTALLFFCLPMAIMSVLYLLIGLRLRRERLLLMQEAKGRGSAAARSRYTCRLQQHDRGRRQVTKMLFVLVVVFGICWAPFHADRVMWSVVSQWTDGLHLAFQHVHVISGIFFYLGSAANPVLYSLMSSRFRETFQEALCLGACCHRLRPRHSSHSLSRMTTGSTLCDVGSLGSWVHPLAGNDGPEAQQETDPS

B1: C20DA-gGlu4-Sar15-AEPipAc-Tyr-Phe-NMeLeu-Nle-Lys-NMeAla-Arg-Gly-NH2 (peptide)
peptide: EEEEXXXXXXXXXXXXXXXXYFLXKARG
HELM: PEPTIDE1{[O=C(O)CCCCCCCCCCCCCCCCCCC(=O)[*:2]].[gGlu].[gGlu].[gGlu].[gGlu].[Sar].[Sar].[Sar].[Sar].[Sar].[Sar].[Sar].[Sar].[Sar].[Sar].[Sar].[Sar].[Sar].[Sar].[Sar].[O=C(CN1CCN(CCN[*:1])CC1)[*:2]].Y.F.[meL].[Nle].K.[meA].R.G.[am]}$$$$V2.0
SMILES: CCCC[C@H](NC(=O)[C@H](CC(C)C)N(C)C(=O)[C@H](Cc1ccccc1)NC(=O)[C@H](Cc1ccc(O)cc1)NC(=O)CN1CCN(CCNC(=O)CN(C)C(=O)CN(C)C(=O)CN(C)C(=O)CN(C)C(=O)CN(C)C(=O)CN(C)C(=O)CN(C)C(=O)CN(C)C(=O)CN(C)C(=O)CN(C)C(=O)CN(C)C(=O)CN(C)C(=O)CN(C)C(=O)CN(C)C(=O)CN(C)C(=O)CC[C@H](NC(=O)CC[C@H](NC(=O)CC[C@H](NC(=O)CC[C@H](NC(=O)CCCCCCCCCCCCCCCCCCC(=O)O)C(=O)O)C(=O)O)C(=O)O)C(=O)O)CC1)C(=O)N[C@@H](CCCCN)C(=O)N(C)[C@@H](C)C(=O)N[C@@H](CCCNC(=N)N)C(=O)NCC(N)=O
B2: C20DA-gGlu4-Sar12-AEPipAc-Tyr-Phe-NMeLeu-Nle-Dbu-NMeAla-Arg-Gly-NH2 (peptide)
peptide: EEEEXXXXXXXXXXXXXYFLXXARG
HELM: PEPTIDE1{[O=C(O)CCCCCCCCCCCCCCCCCCC(=O)[*:2]].[gGlu].[gGlu].[gGlu].[gGlu].[Sar].[Sar].[Sar].[Sar].[Sar].[Sar].[Sar].[Sar].[Sar].[Sar].[Sar].[Sar].[O=C(CN1CCN(CCN[*:1])CC1)[*:2]].Y.F.[meL].[Nle].[Dab].[meA].R.G.[am]}$$$$V2.0
SMILES: CCCC[C@H](NC(=O)[C@H](CC(C)C)N(C)C(=O)[C@H](Cc1ccccc1)NC(=O)[C@H](Cc1ccc(O)cc1)NC(=O)CN1CCN(CCNC(=O)CN(C)C(=O)CN(C)C(=O)CN(C)C(=O)CN(C)C(=O)CN(C)C(=O)CN(C)C(=O)CN(C)C(=O)CN(C)C(=O)CN(C)C(=O)CN(C)C(=O)CN(C)C(=O)CN(C)C(=O)CC[C@H](NC(=O)CC[C@H](NC(=O)CC[C@H](NC(=O)CC[C@H](NC(=O)CCCCCCCCCCCCCCCCCCC(=O)O)C(=O)O)C(=O)O)C(=O)O)C(=O)O)CC1)C(=O)N[C@@H](CCN)C(=O)N(C)[C@@H](C)C(=O)N[C@@H](CCCNC(=N)N)C(=O)NCC(N)=O
B3: C20DA-gGlu4-Sar15-AEPipAc-Tyr-Phe-NMeLeu-Nle-Orn-Pro-Arg-Gly-NH2 (peptide)
peptide: EEEEXXXXXXXXXXXXXXXXYFLXXPRG
HELM: PEPTIDE1{[O=C(O)CCCCCCCCCCCCCCCCCCC(=O)[*:2]].[gGlu].[gGlu].[gGlu].[gGlu].[Sar].[Sar].[Sar].[Sar].[Sar].[Sar].[Sar].[Sar].[Sar].[Sar].[Sar].[Sar].[Sar].[Sar].[Sar].[O=C(CN1CCN(CCN[*:1])CC1)[*:2]].Y.F.[meL].[Nle].[Orn].P.R.G.[am]}$$$$V2.0
SMILES: CCCC[C@H](NC(=O)[C@H](CC(C)C)N(C)C(=O)[C@H](Cc1ccccc1)NC(=O)[C@H](Cc1ccc(O)cc1)NC(=O)CN1CCN(CCNC(=O)CN(C)C(=O)CN(C)C(=O)CN(C)C(=O)CN(C)C(=O)CN(C)C(=O)CN(C)C(=O)CN(C)C(=O)CN(C)C(=O)CN(C)C(=O)CN(C)C(=O)CN(C)C(=O)CN(C)C(=O)CN(C)C(=O)CN(C)C(=O)CN(C)C(=O)CC[C@H](NC(=O)CC[C@H](NC(=O)CC[C@H](NC(=O)CC[C@H](NC(=O)CCCCCCCCCCCCCCCCCCC(=O)O)C(=O)O)C(=O)O)C(=O)O)C(=O)O)CC1)C(=O)N[C@@H](CCCN)C(=O)N1CCC[C@H]1C(=O)N[C@@H](CCCNC(=N)N)C(=O)NCC(N)=O
B4: C20DA-gGlu4-Sar12-AEPipAc-Tyr-Phe-NMeLeu-Nle-Lys-NMeAla-Arg-Gly-NH2 (peptide)
peptide: EEEEXXXXXXXXXXXXXYFLXKARG
HELM: PEPTIDE1{[O=C(O)CCCCCCCCCCCCCCCCCCC(=O)[*:2]].[gGlu].[gGlu].[gGlu].[gGlu].[Sar].[Sar].[Sar].[Sar].[Sar].[Sar].[Sar].[Sar].[Sar].[Sar].[Sar].[Sar].[O=C(CN1CCN(CCN[*:1])CC1)[*:2]].Y.F.[meL].[Nle].K.[meA].R.G.[am]}$$$$V2.0
SMILES: CCCC[C@H](NC(=O)[C@H](CC(C)C)N(C)C(=O)[C@H](Cc1ccccc1)NC(=O)[C@H](Cc1ccc(O)cc1)NC(=O)CN1CCN(CCNC(=O)CN(C)C(=O)CN(C)C(=O)CN(C)C(=O)CN(C)C(=O)CN(C)C(=O)CN(C)C(=O)CN(C)C(=O)CN(C)C(=O)CN(C)C(=O)CN(C)C(=O)CN(C)C(=O)CN(C)C(=O)CC[C@H](NC(=O)CC[C@H](NC(=O)CC[C@H](NC(=O)CC[C@H](NC(=O)CCCCCCCCCCCCCCCCCCC(=O)O)C(=O)O)C(=O)O)C(=O)O)C(=O)O)CC1)C(=O)N[C@@H](CCCCN)C(=O)N(C)[C@@H](C)C(=O)N[C@@H](CCCNC(=N)N)C(=O)NCC(N)=O
B5: C20DA-gGlu3-Sar15-AEPipAc-Tyr-Phe-NMeLeu-Nle-Orn-Gly-Arg-Gly-NH2 (peptide)
peptide: EEEXXXXXXXXXXXXXXXXYFLXXGRG
HELM: PEPTIDE1{[O=C(O)CCCCCCCCCCCCCCCCCCC(=O)[*:2]].[gGlu].[gGlu].[gGlu].[Sar].[Sar].[Sar].[Sar].[Sar].[Sar].[Sar].[Sar].[Sar].[Sar].[Sar].[Sar].[Sar].[Sar].[Sar].[O=C(CN1CCN(CCN[*:1])CC1)[*:2]].Y.F.[meL].[Nle].[Orn].G.R.G.[am]}$$$$V2.0
SMILES: CCCC[C@H](NC(=O)[C@H](CC(C)C)N(C)C(=O)[C@H](Cc1ccccc1)NC(=O)[C@H](Cc1ccc(O)cc1)NC(=O)CN1CCN(CCNC(=O)CN(C)C(=O)CN(C)C(=O)CN(C)C(=O)CN(C)C(=O)CN(C)C(=O)CN(C)C(=O)CN(C)C(=O)CN(C)C(=O)CN(C)C(=O)CN(C)C(=O)CN(C)C(=O)CN(C)C(=O)CN(C)C(=O)CN(C)C(=O)CN(C)C(=O)CC[C@H](NC(=O)CC[C@H](NC(=O)CC[C@H](NC(=O)CCCCCCCCCCCCCCCCCCC(=O)O)C(=O)O)C(=O)O)C(=O)O)CC1)C(=O)N[C@@H](CCCN)C(=O)NCC(=O)N[C@@H](CCCNC(=N)N)C(=O)NCC(N)=O
B6: C20DA-gGlu4-Sar12-AEPipAc-Tyr-Phe-NMeLeu-Nle-Lys-Pro-Arg-Gly-NH2 (peptide)
peptide: EEEEXXXXXXXXXXXXXYFLXKPRG
HELM: PEPTIDE1{[O=C(O)CCCCCCCCCCCCCCCCCCC(=O)[*:2]].[gGlu].[gGlu].[gGlu].[gGlu].[Sar].[Sar].[Sar].[Sar].[Sar].[Sar].[Sar].[Sar].[Sar].[Sar].[Sar].[Sar].[O=C(CN1CCN(CCN[*:1])CC1)[*:2]].Y.F.[meL].[Nle].K.P.R.G.[am]}$$$$V2.0
SMILES: CCCC[C@H](NC(=O)[C@H](CC(C)C)N(C)C(=O)[C@H](Cc1ccccc1)NC(=O)[C@H](Cc1ccc(O)cc1)NC(=O)CN1CCN(CCNC(=O)CN(C)C(=O)CN(C)C(=O)CN(C)C(=O)CN(C)C(=O)CN(C)C(=O)CN(C)C(=O)CN(C)C(=O)CN(C)C(=O)CN(C)C(=O)CN(C)C(=O)CN(C)C(=O)CN(C)C(=O)CC[C@H](NC(=O)CC[C@H](NC(=O)CC[C@H](NC(=O)CC[C@H](NC(=O)CCCCCCCCCCCCCCCCCCC(=O)O)C(=O)O)C(=O)O)C(=O)O)C(=O)O)CC1)C(=O)N[C@@H](CCCCN)C(=O)N1CCC[C@H]1C(=O)N[C@@H](CCCNC(=N)N)C(=O)NCC(N)=O
B7: C20DA-gGlu3-Sar15-AEPipAc-Tyr-Phe-NMeLeu-Nle-Orn-bAla-Arg-Gly-NH2 (peptide)
peptide: EEEXXXXXXXXXXXXXXXXYFLXXXRG
HELM: PEPTIDE1{[O=C(O)CCCCCCCCCCCCCCCCCCC(=O)[*:2]].[gGlu].[gGlu].[gGlu].[Sar].[Sar].[Sar].[Sar].[Sar].[Sar].[Sar].[Sar].[Sar].[Sar].[Sar].[Sar].[Sar].[Sar].[Sar].[O=C(CN1CCN(CCN[*:1])CC1)[*:2]].Y.F.[meL].[Nle].[Orn].[bAla].R.G.[am]}$$$$V2.0
SMILES: CCCC[C@H](NC(=O)[C@H](CC(C)C)N(C)C(=O)[C@H](Cc1ccccc1)NC(=O)[C@H](Cc1ccc(O)cc1)NC(=O)CN1CCN(CCNC(=O)CN(C)C(=O)CN(C)C(=O)CN(C)C(=O)CN(C)C(=O)CN(C)C(=O)CN(C)C(=O)CN(C)C(=O)CN(C)C(=O)CN(C)C(=O)CN(C)C(=O)CN(C)C(=O)CN(C)C(=O)CN(C)C(=O)CN(C)C(=O)CN(C)C(=O)CC[C@H](NC(=O)CC[C@H](NC(=O)CC[C@H](NC(=O)CCCCCCCCCCCCCCCCCCC(=O)O)C(=O)O)C(=O)O)C(=O)O)CC1)C(=O)N[C@@H](CCCN)C(=O)NCCC(=O)N[C@@H](CCCNC(=N)N)C(=O)NCC(N)=O
B8: C20DA-gGlu4-Sar15-AEPipAc-Tyr-Phe-NMeLeu-Nle-Lys-Pro-Arg-Gly-NH2 (peptide)
peptide: EEEEXXXXXXXXXXXXXXXXYFLXKPRG
HELM: PEPTIDE1{[O=C(O)CCCCCCCCCCCCCCCCCCC(=O)[*:2]].[gGlu].[gGlu].[gGlu].[gGlu].[Sar].[Sar].[Sar].[Sar].[Sar].[Sar].[Sar].[Sar].[Sar].[Sar].[Sar].[Sar].[Sar].[Sar].[Sar].[O=C(CN1CCN(CCN[*:1])CC1)[*:2]].Y.F.[meL].[Nle].K.P.R.G.[am]}$$$$V2.0
SMILES: CCCC[C@H](NC(=O)[C@H](CC(C)C)N(C)C(=O)[C@H](Cc1ccccc1)NC(=O)[C@H](Cc1ccc(O)cc1)NC(=O)CN1CCN(CCNC(=O)CN(C)C(=O)CN(C)C(=O)CN(C)C(=O)CN(C)C(=O)CN(C)C(=O)CN(C)C(=O)CN(C)C(=O)CN(C)C(=O)CN(C)C(=O)CN(C)C(=O)CN(C)C(=O)CN(C)C(=O)CN(C)C(=O)CN(C)C(=O)CN(C)C(=O)CC[C@H](NC(=O)CC[C@H](NC(=O)CC[C@H](NC(=O)CC[C@H](NC(=O)CCCCCCCCCCCCCCCCCCC(=O)O)C(=O)O)C(=O)O)C(=O)O)C(=O)O)CC1)C(=O)N[C@@H](CCCCN)C(=O)N1CCC[C@H]1C(=O)N[C@@H](CCCNC(=N)N)C(=O)NCC(N)=O

These binders were tested against T1, human neuromedin U receptor 1 (assay: cell-based or functional assay).

| Binder | EC50 (hNMUR1) buffer |
| --- | --- |
| B1 | > 1000 nM |
| B2 | > 1000 nM |
| B3 | 440 nM |
| B4 | 1400 nM |
| B5 | > 1000 nM |
| B6 | 1200 nM |
| B7 | > 1000 nM |
| B8 | 610 nM |

From patent publication US20240279278A1, “NMU RECEPTOR 2 AGONISTS” (Boehringer Ingelheim International GmbH, priority 2023, published 2024)
